From PMC4867596

B1: endogenous Pex19 (natural protein)
chain: MAAAEEGCSVGAEADRELEELLESALDDFDKAKPSPAPPSTTTAPDASGPQKRSPGDTAKDALFASQEKFFQELFDSELASQATAEFEKAMKELAEEEPHLVEQFQKLSEAAGRVGSDMTSQQEFTSCLKETLSGLAKNATDLQNSSMSEEELTKAMEGLGMDEGDGEGNILPIMQSIMQNLLSKDVLYPSLKEITEKYPEWLQSHRESLPPEQFEKYQEQHSVMCKICEQFEAETPTDSETTQKARFEMVLDLMQQLQDLGHPPKELAGEMPPGLNFDLDALNLSGPPGASGEQCLIM

Columns and labels:
Pex19-YFP [1] = molecular target: Pex19-YFP (UniProt P40855); test: co-IP; HepG2 cells co-transfected with Pex19-YFP and vMIA-myc for 24 h; Pex19-YFP precipitated with GFP-Trap_M beads, 2 h at 4 °C; lysis in 10 mM Tris-HCl pH 7.5, 150 mM NaCl, 0.5 mM EDTA, 0.5% NP-40; blot for myc, Pex19 and GFP; control: cells with GFP and vMIA-myc
[2] = molecular target: peroxisomal MAVS of Mefs MAVS-Pex cells (UniProt Q7Z434); test: co-IP; Mefs MAVS-Pex cells transfected with vMIA-myc or myc-Miro1 for 24 h; precipitated with an antibody against MAVS and Dynabeads Protein G; blot for MAVS and myc; controls: non-transfected cells, Mefs MAVS-KO cells with vMIA-myc
Chain of UniProt Q7Z434 (Q7Z434 whole entry): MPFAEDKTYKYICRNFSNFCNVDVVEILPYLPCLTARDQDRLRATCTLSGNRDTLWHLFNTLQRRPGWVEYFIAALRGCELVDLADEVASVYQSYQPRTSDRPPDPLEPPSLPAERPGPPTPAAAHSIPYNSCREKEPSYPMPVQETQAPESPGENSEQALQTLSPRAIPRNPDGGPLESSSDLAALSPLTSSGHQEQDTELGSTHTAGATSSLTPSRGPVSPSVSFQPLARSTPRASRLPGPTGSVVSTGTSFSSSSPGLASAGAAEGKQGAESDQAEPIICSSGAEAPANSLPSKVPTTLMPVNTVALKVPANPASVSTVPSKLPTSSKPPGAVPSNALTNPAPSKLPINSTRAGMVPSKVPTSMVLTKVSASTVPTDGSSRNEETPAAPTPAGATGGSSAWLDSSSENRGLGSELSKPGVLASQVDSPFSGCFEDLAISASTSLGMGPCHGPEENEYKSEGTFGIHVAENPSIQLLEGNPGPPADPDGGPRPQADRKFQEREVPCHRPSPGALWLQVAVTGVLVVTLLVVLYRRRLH

Pex19-YFP [3] = molecular target: Pex19-YFP (UniProt P40855); test: co-IP; HFF cells transfected with vMIA-myc and Pex19-YFP for 24 h; precipitated with GFP antibody overnight at 4 °C and Dynabeads Protein G; blot for myc and GFP; control: cells with vMIA-myc alone
[4] = molecular target: vMIA-myc (HCMV mitochondria-localized inhibitor of apoptosis, myc-tagged) (human cytomegalovirus); test: co-IP; HFF cells transfected with vMIA-myc for 24 h; precipitated with myc antibody (2 h, 4 °C) and Protein G magnetic beads; blot for myc and endogenous Pex19; control: non-transfected cells
Chain of vMIA-myc (HCMV mitochondria-localized inhibitor of apoptosis, myc-tagged) (human cytomegalovirus) (P16778 23-487): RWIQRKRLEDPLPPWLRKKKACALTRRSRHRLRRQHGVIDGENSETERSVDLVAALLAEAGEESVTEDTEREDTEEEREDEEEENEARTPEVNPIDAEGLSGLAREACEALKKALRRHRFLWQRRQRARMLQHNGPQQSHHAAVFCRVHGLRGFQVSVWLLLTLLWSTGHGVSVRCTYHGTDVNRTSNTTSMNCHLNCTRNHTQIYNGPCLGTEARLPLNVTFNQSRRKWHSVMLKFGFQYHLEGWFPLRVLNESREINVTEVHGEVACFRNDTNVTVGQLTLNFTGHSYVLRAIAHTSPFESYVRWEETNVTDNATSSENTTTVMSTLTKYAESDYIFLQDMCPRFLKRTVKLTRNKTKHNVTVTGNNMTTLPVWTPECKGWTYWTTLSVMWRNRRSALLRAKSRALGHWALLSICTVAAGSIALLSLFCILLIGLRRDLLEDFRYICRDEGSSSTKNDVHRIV

Molecule	fold increase of the IP band over the control (Pex19-YFP [1]) [fold]	fold increase of the IP band over the control [2] [fold]	fold increase of the IP band over the control (Pex19-YFP [3]) [fold]	fold increase of the IP band over the control [4] [fold]
vMIA-myc (HCMV mitochondria-localized inhibitor of apoptosis, myc-tagged) (natural protein)	7	18	5	
B1				3
